Experimental data from paper PMC5415106, “Dpb11 may function with RPA and DNA to initiate DNA replication” (PLoS ONE, 2017).

T1: GST-Dpb11-wild-type (budding yeast, UniProt P47027 1-764)
T1 construct: Dpb11, budding yeast, full-length; also called Full-length Dpb11; wild-type Dpb11
T1 sequence (looked up): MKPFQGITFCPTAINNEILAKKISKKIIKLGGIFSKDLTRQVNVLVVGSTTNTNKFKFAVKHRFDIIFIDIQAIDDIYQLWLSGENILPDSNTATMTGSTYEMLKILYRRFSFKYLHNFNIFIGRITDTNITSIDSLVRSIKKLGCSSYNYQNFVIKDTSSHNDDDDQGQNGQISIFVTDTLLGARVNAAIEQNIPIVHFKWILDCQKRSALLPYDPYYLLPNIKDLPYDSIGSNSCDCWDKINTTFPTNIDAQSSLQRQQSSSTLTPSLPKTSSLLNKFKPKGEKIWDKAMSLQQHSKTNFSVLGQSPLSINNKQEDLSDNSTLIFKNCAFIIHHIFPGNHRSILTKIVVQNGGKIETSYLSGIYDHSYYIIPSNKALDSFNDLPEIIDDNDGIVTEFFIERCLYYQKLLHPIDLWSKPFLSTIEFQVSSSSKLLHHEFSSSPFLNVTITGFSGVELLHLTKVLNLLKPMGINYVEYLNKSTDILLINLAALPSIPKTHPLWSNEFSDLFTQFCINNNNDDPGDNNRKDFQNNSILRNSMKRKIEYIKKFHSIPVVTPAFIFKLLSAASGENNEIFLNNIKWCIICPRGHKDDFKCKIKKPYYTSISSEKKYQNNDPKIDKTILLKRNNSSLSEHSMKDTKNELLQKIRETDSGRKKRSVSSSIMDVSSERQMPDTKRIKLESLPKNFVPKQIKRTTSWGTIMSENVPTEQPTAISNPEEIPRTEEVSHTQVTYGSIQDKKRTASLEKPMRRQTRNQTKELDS

B1: GST-Dpb11-m1,2,3,5,ΔC (natural protein, budding yeast, UniProt P47027 1-615, looked up)
chain: MKPFQGITFCPTAINNEILAKKISKKIIKLGGIFSKDLTRQVNVLVVGSTTNTNKFKFAVKHRFDIIFIDIQAIDDIYQLWLSGENILPDSNTATMTGSTYEMLKILYRRFSFKYLHNFNIFIGRITDTNITSIDSLVRSIKKLGCSSYNYQNFVIKDTSSHNDDDDQGQNGQISIFVTDTLLGARVNAAIEQNIPIVHFKWILDCQKRSALLPYDPYYLLPNIKDLPYDSIGSNSCDCWDKINTTFPTNIDAQSSLQRQQSSSTLTPSLPKTSSLLNKFKPKGEKIWDKAMSLQQHSKTNFSVLGQSPLSINNKQEDLSDNSTLIFKNCAFIIHHIFPGNHRSILTKIVVQNGGKIETSYLSGIYDHSYYIIPSNKALDSFNDLPEIIDDNDGIVTEFFIERCLYYQKLLHPIDLWSKPFLSTIEFQVSSSSKLLHHEFSSSPFLNVTITGFSGVELLHLTEVLNLLEPMGINYVEYLNKSTDILLINLAALPSIPKTHPLWSNEFSDLFTQFCINNNNDDPGDNNRKDFQNNSILENSMKRKIEYIEKFHSIPVVTPAFIFKLLSAASGENNEIFLNNIKWCIICPRGHKDDFKCKIKKPYYTSISSEKKYQN
notes: Dpb11, budding yeast; ΔC = deletion of amino acids 616 to 764 (the C-terminus), so residues up to 615 remain; m1,2,3,5 = K463E, K469E, R538E, K549E in the BRCT4 motif; also called Dpb11-K463E, K469E, R538E,K549E, Δaa616-764; Dpb11-m1,2,3,4,ΔC (as printed once)
B2: Cdc45 (purified, radiolabelled) (natural protein, budding yeast, UniProt Q08032 1-650, looked up)
chain: MYYGISQFSEAYNKILRNSSSHSSCQLVIFVSCLNIDALCATKMLSLLFKKQLVQSQIVPIFGYSELRRHYSQLDDNINSLLLVGFGGVIDLEAFLEIDPQEYVIDTDEKSGEQSFRRDIYVLDAHRPWNLDNIFGSQIIQCFDDGTVDDTLGEQKEAYYKLLELDEESGDDELSGDENDNNGGDDEATDADEVTDEDEEDEDETISNKRGNSSIGPNDLSKRKQRKKQIHEYEGVLEEYYSQGTTVVNSISAQIYSLLSAIGETNLSNLWLNILGTTSLDIAYAQVYNRLYPLLQDEVKRLTPSSRNSVKTPDTLTLNIQPDYYLFLLRHSSLYDSFYYSNYVNAKLSLWNENGKKRLHKMFARMGIPLSTAQETWLYMDHSIKRELGIIFDKNLDRYGLQDIIRDGFVRTLGYRGSISASEFVEALTALLEVGNSTDKDSVKINNDNNDDTDGEEEEDNSAQKLTNLRKRWVSNFWLSWDALDDRKVELLNRGIQLAQDLQRAIFNTGVAILEKKLIKHLRIYRLCVLQDGPDLDLYRNPLTLLRLGNWLIECCAESEDKQLLPMVLASIDENTDTYLVAGLTPRYPRGLDTIHTKKPILNNFSMAFQQITAETDAKVRIDNFESSIIEIRREDLSPFLEKLTLSGLL
notes: Cdc45, budding yeast; The legend says only 'Similar to (A), except Cdc45 was used in place of Sld2T84D'; not shown: PKA tag (inferred from the radiolabelling method), N-terminal, kept
B3: PKA-Sld2T84D (natural protein, budding yeast, UniProt P34252 1-453, looked up)
chain: MYSFELDKLKIELKTWEHDFIDKNKREPTRDDIKSLRTVRQMYKQYSTLKKKQSLQRQKVDTQESVELPAHKKDHDEVVEIGPDPQVYGKAISIFDMNLSPIKPIYMTFTNNIDVNNDNSKTISNESSPRKTILLKSSPADRTLVAEPISSVKRQLNFQMLNASSTRTPTSSPCKNRNGKLVEIKKCSPTINPPLESGKPSGYYGPNSPLKLDEENIHLNISLNSSTKRRLQIAYPSLQKTPSKDQADISTSFSPSPLIRRPLTKSLIELAREHTEIVKEFGVLQEEDIEEEEEGEEGENGYDEKNHEDDFGLEDELIRPKVVKDIFQEDDDNDDSQAREDTFIRKRPKRRKVIRRLRDNDPETETAGFERDVHKELVKLKRRKVAEFLGSTSQISDTEFEHDPEASSGVVSSEQKPTAKRKGRKKYNLVSNNFRRLKLPKKNRFSNGRWGRR
modifications: 32P-phosphate on the artificial PKA site
notes: Sld2, budding yeast, with T84D; not shown: PKA site, N-terminal, kept

Assays:
Assay in all cases: pull-down; 10 pmol GST-tagged Dpb11 with 32P-labelled protein, no DNA; GST-binding buffer (40 mM Tris-HCl pH 7.5, 100 mM NaCl, 0.1 mM EDTA, 10% glycerol, 0.1% Triton X-100, 1 mM DTT, 0.1 mg/ml BSA), 25°C 1 h; glutathione Sepharose, two washes; SDS-PAGE and phosphorimaging
Conditions in all cases: both partners purified
[1] = target: T2, Mcm2-7 complex with a PKA tag at the N-terminus of Mcm2 (budding yeast, UniProt P29469 1-868; P24279 1-971; P30665 1-933; P29496 1-775; P53091 1-1017; P38132 …, 32P-phosphate on the PKA tag)
T2 construct: Mcm2, budding yeast; Mcm3, budding yeast; Mcm4, budding yeast; Mcm5, budding yeast; Mcm6, budding yeast; Mcm7, budding yeast (named only within 'Mcm2-7'); not shown: PKA tag, N-terminal, kept; copies: + + + + +

[2] = target: B2
GST-Dpb11-wild-type = target: T1, GST-Dpb11-wild-type
GST-Dpb11-m1,2,3,5,ΔC = target: B1

binding result [1]	binding result [2]	binding result (GST-Dpb11-wild-type)	binding result (GST-Dpb11-m1,2,3,5,ΔC)	Binder
binds	binds	–	–	B1
–	–	binds	–	B2
–	–	binds	binds	B3
